Assay [1] concerns the target T1, Biotinylated human Amyloid beta 1-42 peptide (human, N-terminal biotin).
T1 construct: Synthetic peptide (rPeptide A1117 or Bachem H-5642); range counted on Amyloid beta; also called N-terminal biotin Abeta 1-42; synthetic biotinylated human Amyloid beta 1-42 peptide
Put plainly: SPR (ProteOn), biotinylated peptide on streptavidin chip, scFv as analyte.

The target in assay [2] is T1, Biotinylated human Amyloid beta 1-42 …. Put plainly: HTRF epitope competition, purified scFv against Abet0144-GL IgG1-TM (competitor) for biotinylated human Amyloid beta 1-42.
Assay [3] deals with T2, Amyloid beta plaques in Tg2576 mouse brain sections (human (transgene in mouse), UniProt P05067 672-713, limits assumed).
T2 construct: domain: Amyloid beta; The two APP mutations lie before the first residue of Amyloid beta; also called native Amyloid beta; Tg2576 brain sections
T2 sequence (P05067 672-713 limits assumed): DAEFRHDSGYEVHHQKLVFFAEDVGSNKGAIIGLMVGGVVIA
In words: in vitro immunohistochemistry, core plaques.

The target in assay [4] is T3, Amyloid beta plaques in human Alzheimer's Disease brain sections (human, UniProt P05067 672-713, limits assumed).
T3 construct: domain: Amyloid beta; Paraffin sections treated with formic acid; aggregated native peptide of mixed length; also called native Amyloid beta; human AD brain sections
T3 sequence (P05067 672-713 limits assumed): as above
In words: in vitro immunohistochemistry, core plaques.

For orientation: Kd means the concentration at which binding is half-saturated. Lower therefore signals tighter binding. As usually defined, the koff is the first-order rate constant of dissociation. Lower therefore signals slow dissociation. For orientation: kon means a measure of how fast the partners come together. Read a high kon as faster complex formation. As usually defined, the IC50 is the concentration that inhibits the measured activity by half. A higher IC50 goes with lower potency.

Where a chain is given by its changes, count along the chain named. Names may count otherwise.

T1 sequence (peptide, as listed by the source): as the sequence (P05067 672-713 limits assumed) above

B1: Abet0328 scFv (scFv, V domains shown)
VH: EVQLLESGGGLVQPGGSLRLSCAASSDAFKTDTMWWVRQAPRKGLEWVSVIGAHTNNSAYADSVKGRFTISRDNSKNTLYLQMNSLRAEDTAVYYCAREWMDRSRPYYYYGMDVWGQGTLVTVSS
VL: SYELTQPPSVSVSPGQTVSITCSGRNLEDKFASWYQQKPGQSPVLVIYRDDKRPSGVPERFSASNSGHTATLTISGTQATDEADYYCSSQDTVTRVFGGGTKLTVL
In assay [1], B1 had a dissociation constant Kd of 729 pM, a dissociation rate constant (koff) of 0.000103 s⁻¹ and a kon of 141000 M⁻¹ s⁻¹. This molecule also showed an IC50 in assay [2] of 550 pM.

B2: Abet0380-GL IgG1-TM (antibody, V domains shown)
VH: EVQLLESGGGLVQPGGSLRLSCAASMGNFNYQTMWWVRQAPGKGLEWVSVIGKTNENIAYADSVKGRFTISRDNSKNTLYLQMNSLRAEDTAVYYCAREWMDHSRPYYYYGMDVWGQGTLVTVSS
VL: B1 VL with V18A, R25H, V57I, T80M
notes: Whole human IgG1 with the triple mutation L234F/L235E/P331S (TM) and human lambda light chain constant domain; also called Abet0380-GL (germlined) IgG1-TM
Turning to B2, the plaque staining score in assay [3] is 4 score (0-4); in assay [4], 3 score (0-4).

B3: Abet0144-GL IgG1-TM (antibody, V domains shown)
VH: EVQLLESGGGLVQPGGSLRLSCAASGFTFSVYTMWWVRQAPGKGLEWVSVIGSSGGTTVYADSVKGRFTISRDNSKNTLYLQMNSLRAEDTAVYYCAREWMDHSRPYYYYGMDVWGQGTLVTVSS
VL: B1 VL with V18A, R25H, V57I, T80M, S88Q, S89A, T92S, V93T
notes: Whole human IgG1 with the triple mutation L234F/L235E/P331S (TM) and human lambda light chain constant domain; also called Abet0144-GL (germlined) IgG1-TM
Take B3: the figures for the plaque staining score in assay [3] and in assay [4] were 1 score (0-4) and 1.5 score (0-4), respectively.
